This passage reports fold reduction of binding against Gro^WT results from PMC3272004.

The target of assay [1] is GST-tagged histone H3 tail (UniProt P61830). Nature of the assay: pull-down; GST-H3 tail or GST-H4 tail immobilised on glutathione beads; in vitro translated [35S]-Gro variants; overnight at 4°C in HEMNK buffer (40 mM HEPES pH 7.5, 5 mM MgCl2, 0.2 mM EDTA, 1 mM DTT, 0.5% NP-40, 0.1 M KCl); autoradiography.
In assay [2] the target is GST-tagged histone H4 tail (UniProt P02309). The description is as above.

For “Gro^ΔCR, Gro deletion variant lacking the entire central region (GP, CcN and SP domains), untagged (from UniProt P16371 1-730) (natural protein)”, the fold reduction of binding against Gro^WT in assay [1] and in assay [2] was over 4 fold each time.
